Assay: Freeze/thaw stability of recombinant mPAO activity
Assay type: physicochemical
Method: Using the conditions for the steady-state kinetic assay described below, mPAO was determined to be stable at 2-4 mg/mL when frozen at −20° C. or −80° C. and thawed through several cycles. […] Thus, mPAO was stored at −20° C. in the presence of 33% (v/v) ethylene glycol. Ethylene glycol elimination and buffer exchange was accomplished easily by several concentration/dilution cycles using Centricon-10 centrifuge concentrators.

B1: mPAO: recombinant murine peroxisomal polyamine oxidase (SEQ ID NO:4) produced in E. coli (protein, listed as Mus musculus)
chain: MAFPGPRVLVVGSGIAGLGAAQKLCSHRAAPHLRVLEATASAGGRIRSERCFGGVVELGAHWIHGPSQDNPVFQLAAEFGLLGEKELSEENQLVDTGGHVALPSMIWSSSGTSVSLELMTEMARLFYGLIERTREFLNESETPMASVGEFLKKEISQQVASWTEDDEDTRKRKLAILNTFFNIKCCVSGTHSMDLVALAPFGEYTVLPGLDCILAGGYQGLTDRILASLPKDTVAFDKPVKTIHWNGSFQEAAFPGETFPVLVECEDGARLPAHHVIVTVPLGFSKEHQDTFFEPPLPAKKAEAIKKLGFGTNNKIFLEFEEPFWEPDCQFIQVVWEDTSPLQDTALSLQDTWFKKLIGFLVQPSFESSHVLCGFIAGLESEFMETLSDEEVLLSLTQVLRRVTGNPQLPAAKSVLSSRWHSAPYTRGSYSYVAVGSTGDDLDLMAQPLPADGTGTQLQVLFAGEATHRTFYSTTHGALLSGWREADRLIGLWDSQAEQSRPRL
- stability of activity on freezing and thawing (30 μg/mL, several freeze/thaw cycles): activity was lost quickly
- stability of activity on freezing and thawing (2-4 mg/mL, frozen at −20° C. or −80° C., several cycles): stable
- stability of activity on freezing and thawing (33% (v/v) ethylene glycol added, 20 μg/mL to 4 mg/mL): stable for several cycles of freezing and thawing

Source: patent publication US20050143472A1, “Novel treatment for pathologies associated with oxidative damage” (priority 2002, published 2005)
